# Experimental data as given in the supplement of paper PMC10899765.
# Columns and labels:
# Conditions in all cases: 20 nM; 72 h
# MCF10A [1] = assay: one-nucleolus phenotype percent effect (relative to siNT 0% and siNOL11 100%); higher = more cells with one nucleolus (ribosome biogenesis inhibition)
# Procedure: (§1)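 After 72 h, cells were fixed and stained with Hoechst and anti-fibrillarin, and nucleoli per nucleus were counted with CellProfiler. Values are plate-adjusted percent effect for the one-nucleolus and 5+ nucleoli phenotypes, normalised to siNT (0%) and to the positive controls siNOL11 or siKIF11 (100%), as the mean of biological triplicates. Percent viability is the nuclei count relative to siNT.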
# MCF10A [2] = assay: percent viability (nuclei count relative to siNT); higher = more viable cells
# Procedure: as §1
# MCF10A [3] = assay: 5+ nucleoli phenotype percent effect (relative to siNT 0% and siKIF11 100%); higher = more cells with five or more nucleoli
# Procedure: as §1
Sequence,one-nucleolus phenotype percent effect (MCF10A [1]) [%],percent viability (MCF10A [2]) [%],5+ nucleoli phenotype percent effect (MCF10A [3]) [%]
AGAAGGGGUGAAAUUUAAACGU [hsa-miR-3179],60.8,18.1,-30.9
CCUGGGCAGCGUGUGGCUGAAGG [hsa-miR-3187-5p],-3.44,66.4,41.1
UGCCCCAUCUGUGCCCUGGGUAGGA [hsa-miR-3189-5p],1.04,52.5,42.8
AGGAGGCAGCGCUCUCAGGAC [hsa-miR-650],23.2,33.8,-3.4
GCAAAGCACACGGCCUGCAGAGA [hsa-miR-330-3p],-7.99,83.2,16.5
CCAGACUGUGGCUGACCAGAGG [hsa-miR-4494],-29.5,96.4,52.3
CUGGGGAGAUCCUCGAGGUUGG [hsa-miR-3150a-3p],23.4,18.9,-16.4
UAGGUUAUCCGUGUUGCCUUCG [hsa-miR-154-5p],34.9,32.9,-28.7
AAAUGGGUGGUCUGAGGCAA [hsa-miR-4506],36.1,46.9,-7.36
AUAUACAGGGGGAGACUCUCAU [hsa-miR-1185-2-3p],21.3,25.8,-11.3
CUGGAUGGCUCCUCCAUGUCU [hsa-miR-432-3p],62,16.2,-33.6
UCACUCUCACCUUGCUUUGC [hsa-miR-4639-3p],-11.5,63,3.2
CUAGGAGGCCUUGGCC [hsa-miR-4266],7.31,52.6,-14.2
CAAAGUGCUGUUCGUGCAGGUAG [hsa-miR-93-5p],-18.1,64.1,59.5
GGGAUUCUGUAGCUUCCU [hsa-miR-4320],50,28.6,-18.6
AAGGGACAGGGAGGGUCGUGG [hsa-miR-7845-5p],-13.3,60.5,2.91
AGAGGCUGGCCGUGAUGAAUUC [hsa-miR-485-5p],-17.3,216,22.1
UGGGGACGUAGCUGGCCAGACAG [hsa-miR-3191-3p],32.8,26.7,4.11
AGAUAUUUUGAGUGUUUGGAAUUG [hsa-miR-3145-3p],-11.7,48.7,-8.4
UAGGCCACAGCCACCCAUGUGU [hsa-miR-4717-5p],-8.66,23.3,-6.97
CAUCUUACUGGGCAGCAUUGGA [hsa-miR-200b-5p],-11.1,73.7,0.989
CUCACUCUCAGUCCCUCCCU [hsa-miR-6794-3p],-18.1,88.6,27.6
AUAGUGGUUGUGAAUUUACCUU [hsa-miR-4460],11.2,33.9,-22.1
CAAGCUCGCUUCUAUGGGUCUG [hsa-miR-99a-3p],23.3,70,-16.1
AGGGACUGCCUUAGGAGAAAGUU [hsa-miR-3199],-15.3,57.4,42.9
